# Reference: patent EP1676860A1
# Molecular target: thrombin
# Assay: cell-based or functional assay
Secondary rate constant (+ hep): thrombin inhibition secondary rate constant in the presence of heparin,Secondary rate constant (- hep): thrombin inhibition secondary rate constant in the absence of heparin,Substance
2.6e+07 M⁻¹ s⁻¹,8800 M⁻¹ s⁻¹,"ATIII MS705 peak (3) fraction (recombinant human antithrombin III produced by the FUT8 gene-double-knockout CHO/DG44 transformant pKAN-ATIII AFMS705, heparin-affinity peak (3)) (from UniProt P01008 33-464)"
2.3e+07 M⁻¹ s⁻¹,8200 M⁻¹ s⁻¹,"Neuart (human plasma-derived antithrombin III preparation, manufactured by Mitsubishi Pharma Corporation) (from UniProt P01008 33-464)"

# The next lines start with the substance.
Substance,Secondary rate constant (+ hep): thrombin inhibition secondary rate constant in the presence of heparin,Secondary rate constant (- hep): thrombin inhibition secondary rate constant in the absence of heparin
"ATIII DG44 peak (1) fraction (recombinant human antithrombin III produced by the CHO/DG44 transformant pKAN-ATIII AFDG44, heparin-affinity peak (1)) (from UniProt P01008 33-464)",8.7e+06 M⁻¹ s⁻¹,7700 M⁻¹ s⁻¹
"ATIII DG44 peak (2) fraction (recombinant human antithrombin III produced by the CHO/DG44 transformant pKAN-ATIII AFDG44, heparin-affinity peak (2)) (from UniProt P01008 33-464)",2e+07 M⁻¹ s⁻¹,8600 M⁻¹ s⁻¹
"ATIII MS705 peak (2) fraction (recombinant human antithrombin III produced by the FUT8 gene-double-knockout CHO/DG44 transformant pKAN-ATIII AFMS705, heparin-affinity peak (2)) (from UniProt P01008 33-464)",2.5e+07 M⁻¹ s⁻¹,–
